Measured values taken from paper PMC9884297, “Iron-sulfur clusters are involved in post-translational arginylation” (Nature Communications, 2023).

Molecular target: the molecule itself
Experiment: SEC; 120 mL gel filtration column, 25 mmol/L Tris pH 7.5, 100 mmol/L NaCl, 1 mmol/L TCEP, 0.35 mol/L glycerol; apparent oligomeric state

B1: Arg tRNA synthetase from E. coli (strain K12) (enzyme, UniProt P11875 1-577, looked up)
chain: MNIQALLSEKVRQAMIAAGAPADCEPQVRQSAKVQFGDYQANGMMAVAKKLGMAPRQLAEQVLTHLDLNGIASKVEIAGPGFINIFLDPAFLAEHVQQALASDRLGVATPEKQTIVVDYSAPNVAKEMHVGHLRSTIIGDAAVRTLEFLGHKVIRANHVGDWGTQFGMLIAWLEKQQQENAGEMELADLEGFYRDAKKHYDEDEEFAERARNYVVKLQSGDEYFREMWRKLVDITMTQNQITYDRLNVTLTRDDVMGESLYNPMLPGIVADLKAKGLAVESEGATVVFLDEFKNKEGEPMGVIIQKKDGGYLYTTTDIACAKYRYETLHADRVLYYIDSRQHQHLMQAWAIVRKAGYVPESVPLEHHMFGMMLGKDGKPFKTRAGGTVKLADLLDEALERARRLVAEKNPDMPADELEKLANAVGIGAVKYADLSKNRTTDYIFDWDNMLAFEGNTAPYMQYAYTRVLSVFRKAEIDEEQLAAAPVIIREDREAQLAARLLQFEETLTVVAREGTPHVMCAYLYDLAGLFSGFYEHCPILSAENEEVRNSRLKLAQLTAKTLKLGLDTLGIETVERM
notes: Arg tRNA synthetase, E. coli strain K12, UniProt P11875; A TEV-protease cleavage site (ENLYFQS) lies between the protein and the C-terminal (His)6 tag (pET-21a(+), NdeI/XhoI); also called EcArgRS; ArgRS
  stoichiometry N: 6
